Data: patent US20210032312A1 (Janssen / Centocor, published 2021)
Positions count from the first letter of the chain named. Blank lines part the entries; values can stand above or below the binder they belong to.

Key:
[1] = target: T1, human CD8 alpha (CD8A) on primary human CD8+ T cells (human, UniProt P01732 22-235); experiment: flow cytometry, human CD8+ T cells, 0.2 uM FN3
T1 construct: whole, on cells; also called hCD8A
Description: (§1) Binding of the 190 ELISA hits to human and cynomologous monkey primary CD8 T cells was assessed by flow cytometry. The FN3 domain molecules were diluted to 2 μM and 0.2 μM in PBS and incubated with human or cynomologous monkey CD8+ T cells in 96-well format. After 1 hour at 4 C, the cells were washed once with PBS and then resuspended with an anti-FN3 domain antibody (PAB25) solution. Following this incubation, the cells were washed twice with PBS and a PE conjugated secondary antibody and a viability dye were added. Finally, cells were washed and resuspended in PBS for flow cytometric analysis using a BD Canto Instrument. Cells were gating on live cells and median fluorescence intensity of the bound Centyrins (PE channel) was calculated using Cytobank software.

[2] = target: T2, cynomolgus monkey CD8A on primary cynomolgus monkey CD8+ T cells (cynomolgus monkey, UniProt P01732 23-235 (human entry)); experiment: flow cytometry, cyno CD8+ T cells, 2 uM FN3
T2 construct: also called Cyno CD8alpha
Description: as §1

In house human CD8A-Fc = target: T3, In house human CD8A-Fc (human, UniProt P01732 22-182, limits assumed); experiment: SPR (ProteOn), captured hCD8A-Fc
T3 construct: Captured on goat anti-human Fc on a ProteOn GLC chip; also called hCD8A-Fc; recombinant human CD8 alpha; not shown: linker with flag (and polyhistidine) tag and Fc of human IgG1
Description: Purified anti-CD8A FN3 domains were subjected to off-rate analysis using a Proteon surface plasmon resonance instrument in order to pick clones with the slowest off-rates for further characterization.
The immobilized GAH-Fc IgG densities averaged about 6000 Response Units (Ru) with less than 1% variation among different channels. In house human CD8A-Fc was captured in vertical orientation at 3 different ligand densities, 10, 5, 2.5 μg/ml for 5 minutes at 30 ul/minute flowrate. All FN3 domains were normalized to a 3 μM concentration, and tested for binding in horizontal orientation. All 6 analyte channels were used for FN3 domains to maximize the screening throughput. The dissociation phase was monitored for 15 minutes at a flow rate of 100 μl/min using PBST as running buffer. […] Data analyses were performed using Bio-Rad ProteOn Manager software (version 3.1.0.6). Raw data were double referenced by subtraction of the interspot (empty chip surface, no protein immobilized or captured) signals to correct the non-specific binding of the FN3 domain to the pre-coated GAH-Fc IgG surface, followed by a double correction using empty channel L6 where no hCD8A-Fc was captured. The processed binding data were locally fit to a 1:1 simple Langmuir binding model to extract the koff for each FN3 domain binding to captured hCD8A-Fc.

[3] = target: T1, human CD8 alpha (CD8A) on primary human …; experiment: flow cytometry, human CD8+ T cells, 2 uM FN3
Description: as §1

[4] = target: T2, cynomolgus monkey CD8A on primary …; experiment: flow cytometry, cyno CD8+ T cells, 0.2 uM FN3
Description: as §1

T3 sequence (P01732 22-182 limits assumed): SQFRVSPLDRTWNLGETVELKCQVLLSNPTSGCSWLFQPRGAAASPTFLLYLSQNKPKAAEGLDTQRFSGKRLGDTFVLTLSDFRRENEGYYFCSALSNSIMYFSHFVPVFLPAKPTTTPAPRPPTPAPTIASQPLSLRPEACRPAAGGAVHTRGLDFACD
T1 sequence (P01732 22-235): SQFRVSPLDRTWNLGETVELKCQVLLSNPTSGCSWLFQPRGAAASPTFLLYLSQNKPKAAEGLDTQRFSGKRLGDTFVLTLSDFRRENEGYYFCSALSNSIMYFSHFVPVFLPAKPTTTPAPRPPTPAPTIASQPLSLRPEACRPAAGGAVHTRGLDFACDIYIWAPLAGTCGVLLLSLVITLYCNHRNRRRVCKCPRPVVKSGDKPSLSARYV
T2 sequence (P01732 other isoform, or with tags, fused parts or gaps limits assumed): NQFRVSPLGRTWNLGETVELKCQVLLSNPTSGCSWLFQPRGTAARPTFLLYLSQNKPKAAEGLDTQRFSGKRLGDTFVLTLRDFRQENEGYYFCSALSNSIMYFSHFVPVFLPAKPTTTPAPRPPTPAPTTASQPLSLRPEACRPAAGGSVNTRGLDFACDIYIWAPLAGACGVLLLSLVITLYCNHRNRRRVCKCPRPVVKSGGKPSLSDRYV

Human T-cell Binding 0.2 uM (MFI) [1]: 4310 MFI | Cyno T-cell Binding 2 uM (MFI) [2]: 35300 MFI | koff (In house human CD8A-Fc): 9.45e-05 s⁻¹ | Human T-cell Binding 2 uM (MFI) [3]: 18500 MFI | Cyno T-cell Binding 0.2 uM (MFI) [4]: 9200 MFI
B1: P283AR9P1362_G3 (designed binder)
chain: LPAPKNLVVSRVTEDSARLSWVKRATSFDSFLIQYQESEKVGEAIVLTVPGSERSYDLTGLKPGTEYTVSIYGVDVKWEGNRPVASNPLSAIFTT
notes: FN3 domain

Human T-cell Binding 0.2 uM (MFI) [1]: 3170 MFI | Cyno T-cell Binding 2 uM (MFI) [2]: 23700 MFI | koff (In house human CD8A-Fc): 0.000112 s⁻¹ | Human T-cell Binding 2 uM (MFI) [3]: 9200 MFI | Cyno T-cell Binding 0.2 uM (MFI) [4]: 4570 MFI
B2: P283AR9P1362_F8 (designed binder)
chain: B1 chain with V22G, K23Y, R24Y, A25H, T26G, S27H
notes: FN3 domain

Human T-cell Binding 0.2 uM (MFI) [1]: 3440 MFI | Cyno T-cell Binding 2 uM (MFI) [2]: 31400 MFI | koff (In house human CD8A-Fc): 9.73e-05 s⁻¹ | Human T-cell Binding 2 uM (MFI) [3]: 10800 MFI | Cyno T-cell Binding 0.2 uM (MFI) [4]: 5780 MFI
B3: P282AR9P1356_A6 (designed binder)
chain: LPAPKNLVVSRVTEDSARLSWSKTDSSFDSFLIQYQESEKVGEAIVLTVPGSERSYDLTGLKPGTEYTVSIYGVDVVYIEGNPVFSNPLSAIFTT
notes: FN3 domain

Human T-cell Binding 0.2 uM (MFI) [1]: 2790 MFI | Cyno T-cell Binding 2 uM (MFI) [2]: 19700 MFI | koff (In house human CD8A-Fc): 0.000186 s⁻¹ | Human T-cell Binding 2 uM (MFI) [3]: 11000 MFI | Cyno T-cell Binding 0.2 uM (MFI) [4]: 5520 MFI
B4: P283AR9P1362_C7 (designed binder)
chain: B1 chain with K77R, W78Y, E79N, G80E, N81G, R82Q, V84I, A85W
notes: FN3 domain

Human T-cell Binding 0.2 uM (MFI) [1]: 4380 MFI | Cyno T-cell Binding 2 uM (MFI) [2]: 26400 MFI | koff (In house human CD8A-Fc): 8.61e-05 s⁻¹ | Human T-cell Binding 2 uM (MFI) [3]: 16700 MFI | Cyno T-cell Binding 0.2 uM (MFI) [4]: 8630 MFI
B5: P282AR9P1356_A4 (designed binder)
chain: B3 chain with S22V, T24R, D25P, S26N, Y78D, I79Y, N82R, V84R, F85W
notes: FN3 domain

Human T-cell Binding 0.2 uM (MFI) [1]: 2090 MFI | Cyno T-cell Binding 2 uM (MFI) [2]: 10600 MFI | koff (In house human CD8A-Fc): 0.000291 s⁻¹ | Human T-cell Binding 2 uM (MFI) [3]: 4260 MFI | Cyno T-cell Binding 0.2 uM (MFI) [4]: 3120 MFI
B6: P282AR9P1356_A10 (designed binder)
chain: LPAPKNLVVSRVTEDSARLSWHTATNSFDSFLIQYQESEKVGEAIVLTVPGSERSYDLTGLKPGTEYTVSIYGVDVDYNPTGRPVSSNPLSAIFTT
notes: FN3 domain

Human T-cell Binding 0.2 uM (MFI) [1]: 2400 MFI | Cyno T-cell Binding 2 uM (MFI) [2]: 13900 MFI | koff (In house human CD8A-Fc): 0.000158 s⁻¹ | Human T-cell Binding 2 uM (MFI) [3]: 5960 MFI | Cyno T-cell Binding 0.2 uM (MFI) [4]: 3360 MFI
B7: P282AR9P1356_D3 (designed binder)
chain: LPAPKNLVVSRVTEDSARLSWTRHETSFDSFLIQYRESEKVGEAIVLTVPGSERSYDLTGLKPGTEYTVSIYGVVVEYDAAGNPKYSNPLSAIFTT
notes: FN3 domain

Human T-cell Binding 0.2 uM (MFI) [1]: 3670 MFI | Cyno T-cell Binding 2 uM (MFI) [2]: 36400 MFI | koff (In house human CD8A-Fc): 0.000295 s⁻¹ | Human T-cell Binding 2 uM (MFI) [3]: 17200 MFI | Cyno T-cell Binding 0.2 uM (MFI) [4]: 5440 MFI
B8: P282AR9P1356_B9 (designed binder)
chain: LPAPKNLVVSRVTEDSARLSWPEGDRPFFDSFLIQYQESEKVGEAIVLTVPGSERSYDLTGLKPGTEYTVSIYGVDVKWEGNRPVASNPLSAIFTT
notes: FN3 domain

Human T-cell Binding 0.2 uM (MFI) [1]: 3350 MFI | Cyno T-cell Binding 2 uM (MFI) [2]: 27500 MFI | koff (In house human CD8A-Fc): 0.000118 s⁻¹ | Human T-cell Binding 2 uM (MFI) [3]: 17300 MFI | Cyno T-cell Binding 0.2 uM (MFI) [4]: 4850 MFI
B9: P283AR9P1362_D7 (designed binder)
chain: LPAPKNLVVSRVTEDSARLSWVKRATSFDSFLIQYQESEKVGEAIVLTVPGSERSYDLTGLKPGTEYTVSIYGVDVKYDIDSRPISSNPLSAIFTT
notes: FN3 domain

Human T-cell Binding 0.2 uM (MFI) [1]: 2640 MFI | Cyno T-cell Binding 2 uM (MFI) [2]: 14400 MFI | koff (In house human CD8A-Fc): 8.08e-05 s⁻¹ | Human T-cell Binding 2 uM (MFI) [3]: 6650 MFI | Cyno T-cell Binding 0.2 uM (MFI) [4]: 3200 MFI
B10: P282AR9P1356_H6 (designed binder)
chain: B9 chain with V22R, T26N, D75H, K77E, I80Q, D81H, S82G, I85R, S86W
notes: FN3 domain

Human T-cell Binding 0.2 uM (MFI) [1]: 3230 MFI | Cyno T-cell Binding 2 uM (MFI) [2]: 46300 MFI | koff (In house human CD8A-Fc): 0.000114 s⁻¹ | Human T-cell Binding 2 uM (MFI) [3]: 14700 MFI | Cyno T-cell Binding 0.2 uM (MFI) [4]: 5700 MFI
B11: P282AR9P1356_H1 (designed binder)
chain: LPAPKNLVVSRVTEDSARLSWIPNPSSFDSFLIQYQESEKVGEAIVLTVPGSERSYDLTGLKPGTEYTVSIYGVDVVFDPVGFPSHSNPLSAIFTT
notes: FN3 domain
